Test results: article PMC4116151 (Biochemistry, 2014)

T1: YbdB (Escherichia coli, UniProt P0A8Y8)
T1 sequence (P0A8Y8 1-137): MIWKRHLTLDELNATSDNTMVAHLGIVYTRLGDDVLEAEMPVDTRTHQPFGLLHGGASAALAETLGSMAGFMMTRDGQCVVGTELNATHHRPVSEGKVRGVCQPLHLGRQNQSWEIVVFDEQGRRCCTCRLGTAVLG

T2: YdiI (Escherichia coli, UniProt P77781)
T2 sequence (P77781 1-136): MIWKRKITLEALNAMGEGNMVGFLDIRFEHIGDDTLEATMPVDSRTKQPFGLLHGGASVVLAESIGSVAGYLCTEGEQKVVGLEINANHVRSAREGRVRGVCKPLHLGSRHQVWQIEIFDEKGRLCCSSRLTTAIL

T3: YbdB (Escherichia coli, UniProt P0A8Y8, M68V)
T3 sequence (P0A8Y8 1-137 M68V): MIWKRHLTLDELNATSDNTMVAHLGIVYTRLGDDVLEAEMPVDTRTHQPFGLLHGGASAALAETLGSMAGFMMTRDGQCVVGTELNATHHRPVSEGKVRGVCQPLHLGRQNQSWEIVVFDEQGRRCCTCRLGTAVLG

B1: YdiI (Escherichia coli K-12; S64A) (protein)
chain: MIWKRKITLEALNAMGEGNMVGFLDIRFEHIGDDTLEATMPVDSRTKQPFGLLHGGASVVLAEAIGSVAGYLCTEGEQKVVGLEINANHVRSAREGRVRGVCKPLHLGSRHQVWQIEIFDEKGRLCCSSRLTTAIL
B2: YdiI (Escherichia coli K-12; H89A) (protein)
chain: MIWKRKITLEALNAMGEGNMVGFLDIRFEHIGDDTLEATMPVDSRTKQPFGLLHGGASVVLAESIGSVAGYLCTEGEQKVVGLEINANAVRSAREGRVRGVCKPLHLGSRHQVWQIEIFDEKGRLCCSSRLTTAIL
B3: YdiI (Escherichia coli K-12; H54A) (protein)
chain: MIWKRKITLEALNAMGEGNMVGFLDIRFEHIGDDTLEATMPVDSRTKQPFGLLAGGASVVLAESIGSVAGYLCTEGEQKVVGLEINANHVRSAREGRVRGVCKPLHLGSRHQVWQIEIFDEKGRLCCSSRLTTAIL
B4: YdiI (Escherichia coli K-12; S109A) (protein)
chain: MIWKRKITLEALNAMGEGNMVGFLDIRFEHIGDDTLEATMPVDSRTKQPFGLLHGGASVVLAESIGSVAGYLCTEGEQKVVGLEINANHVRSAREGRVRGVCKPLHLGARHQVWQIEIFDEKGRLCCSSRLTTAIL
B5: YdiI (Escherichia coli K-12; S67A) (protein)
chain: MIWKRKITLEALNAMGEGNMVGFLDIRFEHIGDDTLEATMPVDSRTKQPFGLLHGGASVVLAESIGAVAGYLCTEGEQKVVGLEINANHVRSAREGRVRGVCKPLHLGSRHQVWQIEIFDEKGRLCCSSRLTTAIL
B6: YdiI (Escherichia coli K-12; H54F) (protein)
chain: MIWKRKITLEALNAMGEGNMVGFLDIRFEHIGDDTLEATMPVDSRTKQPFGLLFGGASVVLAESIGSVAGYLCTEGEQKVVGLEINANHVRSAREGRVRGVCKPLHLGSRHQVWQIEIFDEKGRLCCSSRLTTAIL
B7: YdiI (Escherichia coli K-12; R91A) (protein)
chain: MIWKRKITLEALNAMGEGNMVGFLDIRFEHIGDDTLEATMPVDSRTKQPFGLLHGGASVVLAESIGSVAGYLCTEGEQKVVGLEINANHVASAREGRVRGVCKPLHLGSRHQVWQIEIFDEKGRLCCSSRLTTAIL
B8: YdiI (Escherichia coli K-12; E63D) (protein)
chain: MIWKRKITLEALNAMGEGNMVGFLDIRFEHIGDDTLEATMPVDSRTKQPFGLLHGGASVVLADSIGSVAGYLCTEGEQKVVGLEINANHVRSAREGRVRGVCKPLHLGSRHQVWQIEIFDEKGRLCCSSRLTTAIL
B9: YdiI (Escherichia coli K-12; Q48N) (protein)
chain: MIWKRKITLEALNAMGEGNMVGFLDIRFEHIGDDTLEATMPVDSRTKNPFGLLHGGASVVLAESIGSVAGYLCTEGEQKVVGLEINANHVRSAREGRVRGVCKPLHLGSRHQVWQIEIFDEKGRLCCSSRLTTAIL
B10: YbdB (Escherichia coli K-12) (protein)
chain: MIWKRHLTLDELNATSDNTMVAHLGIVYTRLGDDVLEAEMPVDTRTHQPFGLLHGGASAALAETLGSMAGFMMTRDGQCVVGTELNATHHRPVSEGKVRGVCQPLHLGRQNQSWEIVVFDEQGRRCCTCRLGTAVLG

Assays:
YbdB [1] = molecular target: T1, YbdB; assay: steady-state inhibition of thioester hydrolysis, DTNB coupled assay; format: biochemical
YdiI [2] = molecular target: T2, YdiI; assay: as above; format: biochemical
YbdB [3] = molecular target: T1, YbdB; assay: steady-state inhibition of 4-hydroxybenzoyl-CoA hydrolysis, direct […] nm assay; format: biochemical
YdiI [4] = molecular target: T2, YdiI; assay: as above; format: biochemical
YdiI [5] = molecular target: T2, YdiI; assay: steady-state kinetics, DTNB coupled assay at […] nm; format: biochemical; details: pH 7.5, 25 °C; 50 mM K+HEPES, 1 mM DTNB
YbdB [6] = molecular target: T3, YbdB; assay: steady-state kinetics, DTNB coupled assay at […] nm; format: biochemical; details: pH 7.5, 25 °C; 50 mM K+HEPES, 1 mM DTNB
purified protein = substrate: CC(C)(COP(=O)(O)OP(=O)(O)OC[C@H]1O[C@@H](n2cnc3c(N)ncnc32)[C@H](O)[C@@H]1OP(=O)(O)O)[C@@H](O)C(=O)NCCC(=O)NCCSC(=O)c1ccccc1; assay: purified protein; details: pH 7.5, 25 °C, 50 mM K+HEPES, 1 mM DTNB

| Molecule | Km (purified protein) [µM] | also measured |
| --- | --- | --- |
| CC(C)(COP(=O)(O)OP(=O)(O)OC[C@H]1O[C@@H](n2cnc3c(N)ncnc32)[C@H](O)[C@@H]1OP(=O)(O)O)[C@@H](O)C(=O)NCCC(=O)NCCSCC(=O)c1ccccc1 [phenacyl-CoA] |  | Ki (YbdB [1]): 65 ± 6 µM; Ki (YdiI [2]): 7.8 ± 0.4 µM |
| CC(C)(COP(=O)(O)OP(=O)(O)OC[C@H]1O[C@@H](n2cnc3c(N)ncnc32)[C@H](O)[C@@H]1OP(=O)(O)O)[C@@H](O)C(=O)NCCC(=O)NCCSCC(=O)c1ccc(O)cc1O [compound 5, 2,4-DHP-CoA] |  | Ki (YbdB [1]): 5.9 ± 6 µM; Ki (YdiI [2]): 2.5 ± 0.2 µM |
| CC(C)(COP(=O)(O)OP(=O)(O)OC[C@H]1O[C@@H](n2cnc3c(N)ncnc32)[C@H](O)[C@@H]1OP(=O)(O)O)[C@@H](O)C(=O)NCCC(=O)NCCS [compound 4, CoA] |  | Ki (YbdB [3]): 210 ± 10 µM; Ki (YdiI [4]): 16 ± 1 µM |
| CC(C)(COP(=O)(O)OP(=O)(O)OC[C@H]1O[C@@H](n2cnc3c(N)ncnc32)[C@H](O)[C@@H]1OP(=O)(O)O)[C@@H](O)C(=O)NCCC(=O)NCCSC(=O)c1ccccc1 [compound 3, benzoyl-CoA] |  | Km (YdiI [5]): 25 ± 3 µM; Km (YbdB [6]): 24 ± 2 µM |
| CCCCCCCCCC(=O)CSCCNC(=O)CCNC(=O)[C@H](O)C(C)(C)COP(=O)(O)OP(=O)(O)OC[C@H]1O[C@@H](n2cnc3c(N)ncnc32)[C@H](O)[C@@H]1OP(=O)(O)O [compound 6, UDO-CoA] |  | Ki (YdiI [2]): 12.2 ± 0.5 µM |
| B1 | 11.9 ± 0.9 |  |
| B2 | 180 ± 10 |  |
| B3 | 100 ± 8 |  |
| B4 | 14.2 ± 0.2 |  |
| B5 | 12.6 ± 0.2 |  |
| B6 | 16.8 ± 0.9 |  |
| B7 | 23 ± 3 |  |
| B8 | 120 ± 10 |  |
| B9 | 12.6 ± 0.8 |  |
| B10 | 12 ± 1 |  |
